What was measured:
[1] = target: T1, EPO/EPOR interaction (EPOR-CD131-Fc and EPO) (Homo sapiens, UniProt P19235+P32927); assay: Octet blocking of the EPO/EPOR interaction by hybridoma supernatants; format: binding; details: EPO 10 nM
T1 construct: Chimeric Fc fusion proteins of the extracellular domains of human EPOR and human CD131; purchased Sino Biological CT010-H02H
T1 sequence (P19235 25-250 limits assumed): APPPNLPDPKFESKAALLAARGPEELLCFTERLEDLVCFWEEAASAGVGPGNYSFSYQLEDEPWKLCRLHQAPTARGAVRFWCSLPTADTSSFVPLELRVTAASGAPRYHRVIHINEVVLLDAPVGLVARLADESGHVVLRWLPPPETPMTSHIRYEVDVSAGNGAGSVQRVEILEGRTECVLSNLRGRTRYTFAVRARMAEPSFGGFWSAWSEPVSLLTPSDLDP
T1 sequence (P32927 17-443 limits assumed): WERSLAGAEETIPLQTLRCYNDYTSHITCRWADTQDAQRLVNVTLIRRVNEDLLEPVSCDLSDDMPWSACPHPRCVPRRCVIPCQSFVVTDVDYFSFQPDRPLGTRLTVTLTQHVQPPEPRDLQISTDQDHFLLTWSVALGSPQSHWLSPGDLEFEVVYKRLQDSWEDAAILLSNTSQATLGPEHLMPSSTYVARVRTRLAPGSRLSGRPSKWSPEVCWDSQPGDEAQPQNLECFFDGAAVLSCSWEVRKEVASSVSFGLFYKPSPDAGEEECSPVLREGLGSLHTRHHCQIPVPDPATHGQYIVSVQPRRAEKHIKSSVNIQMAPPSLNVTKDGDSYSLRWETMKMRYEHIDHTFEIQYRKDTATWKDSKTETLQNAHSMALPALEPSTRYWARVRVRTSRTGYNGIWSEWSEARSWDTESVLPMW

293T/CD131 cells = target: T2, 293T/CD131 cells (Homo sapiens, UniProt P32927); assay: Staining of 293T/CD131 cells with purified antibodies; format: binding
T2 construct: expressed in transfected cells; host or cells: 293T cells, lentiviral transduction
T2 sequence (P32927 17-897): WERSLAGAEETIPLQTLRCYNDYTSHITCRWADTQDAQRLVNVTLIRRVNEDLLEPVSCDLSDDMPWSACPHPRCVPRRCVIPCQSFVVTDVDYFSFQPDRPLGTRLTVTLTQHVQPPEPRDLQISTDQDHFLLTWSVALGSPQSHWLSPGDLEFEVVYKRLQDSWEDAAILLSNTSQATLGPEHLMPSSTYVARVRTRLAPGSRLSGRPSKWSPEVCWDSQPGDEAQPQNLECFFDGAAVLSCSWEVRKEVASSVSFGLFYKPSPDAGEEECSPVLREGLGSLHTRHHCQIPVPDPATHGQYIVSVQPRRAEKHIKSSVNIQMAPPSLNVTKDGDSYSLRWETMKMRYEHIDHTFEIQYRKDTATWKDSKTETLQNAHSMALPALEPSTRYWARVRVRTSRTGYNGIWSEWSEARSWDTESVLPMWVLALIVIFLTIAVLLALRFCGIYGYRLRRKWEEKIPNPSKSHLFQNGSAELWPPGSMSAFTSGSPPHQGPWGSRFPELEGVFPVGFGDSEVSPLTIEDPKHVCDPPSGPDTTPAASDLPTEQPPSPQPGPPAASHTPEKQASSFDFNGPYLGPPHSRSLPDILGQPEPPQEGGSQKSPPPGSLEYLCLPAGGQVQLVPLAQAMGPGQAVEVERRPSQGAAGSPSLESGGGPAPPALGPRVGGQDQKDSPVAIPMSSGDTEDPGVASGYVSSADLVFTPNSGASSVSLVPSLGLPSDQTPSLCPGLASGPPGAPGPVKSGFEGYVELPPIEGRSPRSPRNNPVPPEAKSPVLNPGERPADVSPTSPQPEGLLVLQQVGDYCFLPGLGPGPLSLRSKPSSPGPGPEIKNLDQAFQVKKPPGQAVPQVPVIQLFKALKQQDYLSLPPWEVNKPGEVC
Method: The purified antibodies were used to stain the human leukemia UT-7 cells, 293T/EPOR, 293T/CD131, and 293T/EPOR/CD131 cells to confirm antigen binding. The UT-7 cells were maintained in Roswell Park Memorial Institute (RPMI) with 10% Fetal Bovine Serum (FBS) and 5 ng/ml of recombinant human GM-CSF (Peprotech®, Cat #300-03). The 293T cells expressing hEPOR, hCD131, or both were maintained in Dulbecco's Modified Eagle Medium (DMEM) with 10% FBS. 1×10^6 cells/ml were incubated with purified hybridoma clones M2 and M41 at a 3-fold dilution series starting from 20 μg/ml for 30 minutes at 4° C. After washing, the cells were incubated with PE labeled secondary antibody and subjected to flowcytometric analysis. […] The binding profiles of the 293T/EPOR/CD131 cells are similar except the peak MFIs around 1500, half of that of the 293T/EPOR cells (FIG. 29B).

- blocking of the EPO/EPOR interaction [1]: nearly complete blocking
- staining of 293T/CD131 cells (293T/CD131 cells): did not stain
B1: EPORab - M2: hybridoma antibody clone, VH/VK in Table 10 (antibody, V domains shown)
VH: QVQLVESGGGLVKPGGSLRLSCAASGFTFSDSYMSWIRQAPGKGLEWVSYISNSGSYMYYADSVKGRFTISRDNAKNSLYLQMNNLRAEDTAVYYCARDKLGIGDYWGQGTLVTVSS
VL: DIQMTQSPSSLSASVGDRVTITCRASQGIRNDLGWFQQKPGKAPKRLIYAASRLQSGVPSRFSGSGSGTEFTLTISSLQPEDFATYCCLQHHTYPPTFGQGTKVEIK

Reference: patent US12637513B2, “Method of treating cancer by administering an inhibitor of erythropoietin receptor activity comprising either erythropoietin receptor or erythropoietin protein” (ImmunEdge, Inc., priority 2022, dated 2026)
